Source: publication PMC4667172

Biological target: T1, LONM (human mitochondrial matrix AAA+ protease) (human (endogenous in HeLa)) (UniProt P36776)
T1 sequence: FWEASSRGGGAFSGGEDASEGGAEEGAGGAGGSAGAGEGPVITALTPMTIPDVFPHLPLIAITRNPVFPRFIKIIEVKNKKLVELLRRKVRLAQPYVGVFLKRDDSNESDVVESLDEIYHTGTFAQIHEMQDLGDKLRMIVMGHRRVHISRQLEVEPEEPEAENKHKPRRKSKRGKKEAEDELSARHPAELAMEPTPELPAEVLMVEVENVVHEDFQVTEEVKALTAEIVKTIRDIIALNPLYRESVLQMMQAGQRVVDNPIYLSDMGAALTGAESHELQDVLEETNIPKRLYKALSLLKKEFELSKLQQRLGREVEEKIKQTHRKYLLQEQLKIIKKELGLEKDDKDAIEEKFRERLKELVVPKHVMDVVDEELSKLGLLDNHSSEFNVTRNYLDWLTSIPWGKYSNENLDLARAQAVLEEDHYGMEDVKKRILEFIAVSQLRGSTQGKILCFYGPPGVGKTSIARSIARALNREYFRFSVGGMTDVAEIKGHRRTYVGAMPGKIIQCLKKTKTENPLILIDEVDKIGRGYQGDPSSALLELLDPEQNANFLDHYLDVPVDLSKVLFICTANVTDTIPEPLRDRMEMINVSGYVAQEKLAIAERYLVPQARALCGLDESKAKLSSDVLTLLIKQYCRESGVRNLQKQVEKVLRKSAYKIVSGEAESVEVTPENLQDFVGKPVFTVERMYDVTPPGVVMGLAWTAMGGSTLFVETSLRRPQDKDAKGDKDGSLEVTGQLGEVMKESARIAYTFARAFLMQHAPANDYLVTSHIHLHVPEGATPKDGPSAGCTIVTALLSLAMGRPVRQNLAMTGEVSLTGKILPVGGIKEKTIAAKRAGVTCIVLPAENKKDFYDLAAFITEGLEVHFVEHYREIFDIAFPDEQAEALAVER

B1: mature recombinant OTC (rat ornithine transcarbamylase) (natural protein)
chain: SQVQLKGRDLLTLKNFTGEEIQYMLWLSADLKFRIKQKGEYLPLLQGKSLGMIFEKRSTRTRLSTETGFALLGGHPSFLTTQDIHLGVNESLTDTARVLSSMTDAVLARVYKQSDLDILAKEATIPIVNGLSDLYHPIQILADYLTLQEHYGSLKGLTLSWIGDGNNILHSIMMSAAKFGMHLQAATPKGYEPDPNIVKLAEQYAKENGTRLSMTNDPLEAARGGNVLITDTWISMGQEDEKKKRLQAFQGYQVTMKTAKVAASDWTFLHCLPRKPEEVDDEVFYSPRSLVFPEAENRKWTIMAVMVSLLTDYSPVLQKPKF
half-life of guanidine-unfolded OTC (OTCU) in in vitro degradation by purified recombinant LONM with ATP: 15 min

B2: Pig heart mitochondrial malate dehydrogenase (MDH) (natural protein)
chain: AKVAVLGASGGIGQPLSLLLKNSPLVSRLTLYDIAHTPGVAADLSHIETRATVKGYLGPEQLPDCLKGCDVVVIPAGVPRKPGMTRDDLFNTNATIVATLTAACAQHCPDAMICIISNPVNSTIPITAEVFKKHGVYNPNKIFGVTTLDIVRANAFVAELKGLDPARVSVPVIGGHAGKTIIPLISQCTPKVDFPQDQLSTLTGRIQEAGTEVVKAKAGAGSATLSMAYAGARFVFSLVDAMNGKEGVVECSFVKSQETDCPYFSTPLLLGKKGIEKNLGIGKISPFEEKMIAEAIPELKASIKKGEEFVKNMK
half-life of guanidine-unfolded MDH (MDHU) in in vitro degradation by purified recombinant LONM with ATP: 4 min
